Data: US20160250307A1 (IMMATICS BIOTECHNOLOGIES, published 2016)

The binders below were run against HLA-A*02 (human) (assay: UV-ligand exchange, anti-b2m ELISA; grade: exchange yield >=20%).
Binder KIAGTNAEV has a peptide exchange yield of 20 to 50%.
FLWTEQAHTV gave a peptide exchange yield of 20 to 50%.
For KLLAATVLLL, the peptide exchange yield was 20 to 50%.
TLITDGMRSV showed a peptide exchange yield of 20 to 50%.
Binder RLYTMDGITV has a peptide exchange yield of 20 to 50%.
In the case of RLMSALTQV, the peptide exchange yield is reported as 20 to 50%.
In the case of FTIPKLYQL, the peptide exchange yield is reported as 20 to 50%.
In the case of AMPPPPPQGV, the peptide exchange yield is reported as 20 to 50%.
Binder FLASESLIKQI has a peptide exchange yield of 20 to 50%.
Binder TMAKESSIIGV has a peptide exchange yield of 20 to 50%.
In the case of RIISGLVKV, the peptide exchange yield is reported as 20 to 50%.
KQMEPLHAV showed a peptide exchange yield of 20 to 50%.
Binder FLYPEKDEPT has a peptide exchange yield of 20 to 50%.
TLAQQPTAV was tested, and the peptide exchange yield was 20 to 50%.
FLDTPIAKV was tested, and the peptide exchange yield was 20 to 50%.
In the case of FVLPLLGLHEA, the peptide exchange yield is reported as 20 to 50%.
RVPPPPQSV was tested, and the peptide exchange yield was 20 to 50%.
RLIEEIKNV gave a peptide exchange yield of 20 to 50%.
In the case of YLYNNEEQVGL, the peptide exchange yield is reported as 20 to 50%.
YLSQAADGAKVL gave a peptide exchange yield of 20 to 50%.
With FLIAEYFEHV the peptide exchange yield was 20 to 50%.
LTDITKGV showed a peptide exchange yield of 20 to 50%.
With YLGEEYVKA the peptide exchange yield was 20 to 50%.
In the case of SLVGDIGNVNM, the peptide exchange yield is reported as 20 to 50%.
Binder GLAEELVRA has a peptide exchange yield of 20 to 50%.
RIPAYFVTV was tested, and the peptide exchange yield was 20 to 50%.
RLLAKIICL was tested, and the peptide exchange yield was 20 to 50%.
With RLIDRIKTV the peptide exchange yield was 20 to 50%.

These binders were tested against HLA-A*02 (human) (assay: UV-ligand exchange, anti-b2m ELISA; grade: exchange yield >=75%).
In the case of KLAEIVKQV (also called MAPKAPK5-001), the peptide exchange yield is reported as at least 75%.
With ALADLTGTVV (also called NCST-001) the peptide exchange yield was at least 75%.
YLITSVELL (also called ACSL4-001) showed a peptide exchange yield of at least 75%.
Work on ALLKVNQEL (also called SAMM-001) yielded a peptide exchange yield of at least 75%.
With KLQDFSDQL (also called APOB-004) the peptide exchange yield was at least 75%.
With SLLEEFDFHV (also called USO-001) the peptide exchange yield was at least 75%.
Work on GVMAGDIYSV (also called ADF-012) yielded a peptide exchange yield of at least 75%.
For GLIDTETAMKAV (also called HSD11B1-001), the peptide exchange yield was at least 75%.
For ALVDTLKFV (also called APOB-002), the peptide exchange yield was at least 75%.
VLTEFTREV (also called IPO9-001) gave a peptide exchange yield of at least 75%.
For KLLDNWDSV, the peptide exchange yield was at least 75%.
SLLGGNIRL (also called ACSL3-001) was tested, and the peptide exchange yield was at least 75%.
Work on FLAELAYDL (also called GPC3-001) yielded a peptide exchange yield of at least 75%.
With FLFNTENKLLL (also called IDI1-001) the peptide exchange yield was at least 75%.
ALVEQGFTV (also called APOB-001) was tested, and the peptide exchange yield was at least 75%.
LLYGHTVTV (also called SLC35B2-001) was tested, and the peptide exchange yield was at least 75%.
Work on VMAPFTMTI (also called APOB-003) yielded a peptide exchange yield of at least 75%.

Biological target: HLA-A*02 (human)
Assay: as above
Remark: another data set of the same source
Binder KLAEIVKQV (also called MAPKAPK5-001) has a peptide exchange yield of at least 75%.
ALADLTGTVV (also called NCST-001) gave a peptide exchange yield of at least 75%.
With SLIDQFFGV (also called USP14-001) the peptide exchange yield was at least 75%.
In the case of YLITSVELL (also called ACSL4-001), the peptide exchange yield is reported as at least 75%.
In the case of ALLKVNQEL (also called SAMM-001), the peptide exchange yield is reported as at least 75%.
KLQDFSDQL (also called APOB-004) was tested, and the peptide exchange yield was at least 75%.
Binder SLLEEFDFHV (also called USO-001) has a peptide exchange yield of at least 75%.
Binder GVMAGDIYSV (also called ADF-012) has a peptide exchange yield of at least 75%.
With GLIDTETAMKAV (also called HSD11B1-001) the peptide exchange yield was at least 75%.
For ALVDTLKFV (also called APOB-002), the peptide exchange yield was at least 75%.
Binder ALASVIKEL (also called IFT81-001) has a peptide exchange yield of at least 75%.
VLTEFTREV (also called IPO9-001) showed a peptide exchange yield of at least 75%.
In the case of SLLGGNIRL (also called ACSL3-001), the peptide exchange yield is reported as at least 75%.
FLAELAYDL (also called GPC3-001) showed a peptide exchange yield of at least 75%.
With FLFNTENKLLL (also called IDI1-001) the peptide exchange yield was at least 75%.
ALVEQGFTV (also called APOB-001) gave a peptide exchange yield of at least 75%.
With LLYGHTVTV (also called SLC35B2-001) the peptide exchange yield was at least 75%.
With VMAPFTMTI (also called APOB-003) the peptide exchange yield was at least 75%.

The binders below were run against HLA-A*02 (human) (assay: UV-ligand exchange, anti-b2m ELISA; grade: exchange yield 50%-75%).
KLSPTVVGL (also called AXIN2-001) showed a peptide exchange yield of 50 to 75%.
VLADFGARV (also called C1QTNF3-001) was tested, and the peptide exchange yield was 50 to 75%.
With AVLGPLGLQEV (also called THT-001) the peptide exchange yield was 50 to 75%.
Binder SLSQELVGV (also called ZNF318-001) has a peptide exchange yield of 50 to 75%.
SLLEKELESV (also called DRG2-001) was tested, and the peptide exchange yield was 50 to 75%.
Work on KLLEEATISV (also called DYM-001) yielded a peptide exchange yield of 50 to 75%.
KMDPVAYRV (also called QAR-001) was tested, and the peptide exchange yield was 50 to 75%.
ALCEENMRGV (also called EEF2-001) showed a peptide exchange yield of 50 to 75%.
Binder GVYDGEEHSV (also called MAGEB2-001) has a peptide exchange yield of 50 to 75%.
With KLQAGTVFV (also called ALDH1L1-001) the peptide exchange yield was 50 to 75%.

These binders were tested against HLA-A*02 (human) (assay: UV-ligand exchange, anti-b2m ELISA; grade: exchange yield >=50%).
For KLSPTVVGL (also called AXIN2-001), the peptide exchange yield was 50 to 75%.
In the case of AVLGPLGLQEV (also called THT-001), the peptide exchange yield is reported as 50 to 75%.
With SLSQELVGV (also called ZNF318-001) the peptide exchange yield was 50 to 75%.
Binder SLLEKELESV (also called DRG2-001) has a peptide exchange yield of 50 to 75%.
KLLEEATISV (also called DYM-001) showed a peptide exchange yield of 50 to 75%.
KMDPVAYRV (also called QAR-001) gave a peptide exchange yield of 50 to 75%.
ALASVIKEL (also called IFT81-001) was tested, and the peptide exchange yield was 50 to 75%.
ALCEENMRGV (also called EEF2-001) was tested, and the peptide exchange yield was 50 to 75%.
With KLQAGTVFV (also called ALDH1L1-001) the peptide exchange yield was 50 to 75%.
